Source: article PMC7145526, “The mRNA repressor TRIM71 cooperates with Nonsense-Mediated Decay factors to destabilize the mRNA of CDKN1A/p21”

Target: T1, Flag-TRIM71-NHL (Homo sapiens, UniProt Q2Q1W2 585-868)
T1 sequence: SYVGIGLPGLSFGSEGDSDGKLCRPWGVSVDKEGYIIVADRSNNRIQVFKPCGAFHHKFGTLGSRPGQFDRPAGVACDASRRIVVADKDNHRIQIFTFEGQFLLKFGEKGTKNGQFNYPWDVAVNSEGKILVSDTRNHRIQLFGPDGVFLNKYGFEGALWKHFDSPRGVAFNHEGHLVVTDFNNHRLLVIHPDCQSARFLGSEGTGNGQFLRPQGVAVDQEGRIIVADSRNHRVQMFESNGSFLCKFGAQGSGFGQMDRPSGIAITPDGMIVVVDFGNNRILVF
Assay: fluorescence polarization; 1x TBST, 30 min, RT; 100 nM 5'-Cy3 RNA, increasing protein concentrations; pH and salt not given
Details: protein: recombinant; tags: Flag; label: 5'-Cy3; hairpin (disruptive mutation)

Does GUCUUGUCAAGGC (structured_RNA) [TRE M#3 (SL M#3), loop position III G to C] bind?
Result: no binding
